# T1: GPC3 peptide, amino acid position 551-580 (SEQ ID NO: 29) (human)
# T1 construct: synthetic 30-residue peptide of GPC3
# T1 peptide: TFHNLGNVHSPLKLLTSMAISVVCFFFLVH
# T2: GPC3 peptide, amino acid position 181-210 (SEQ ID NO: 10) (human)
# T2 construct: synthetic 30-residue peptide of GPC3
# T2 peptide: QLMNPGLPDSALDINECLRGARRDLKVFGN
# T3: GPC3 peptide, amino acid position 381-410 (SEQ ID NO: 20) (human)
# T3 construct: synthetic 30-residue peptide of GPC3
# T3 peptide: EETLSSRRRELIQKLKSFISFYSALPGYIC
# T4: GPC3 peptide, amino acid position 321-350 (SEQ ID NO: 17) (human)
# T4 construct: synthetic 30-residue peptide of GPC3
# T4 peptide: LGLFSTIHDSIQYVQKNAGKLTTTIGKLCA
# T5: GPC3 peptide, amino acid position 341-370 (SEQ ID NO: 18) (human)
# T5 construct: synthetic 30-residue peptide of GPC3
# T5 peptide: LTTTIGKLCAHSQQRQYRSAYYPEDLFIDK
# T6: GPC3 peptide, amino acid position 81-110 (SEQ ID NO: 5) (human)
# T6 construct: synthetic 30-residue peptide of GPC3
# T6 peptide: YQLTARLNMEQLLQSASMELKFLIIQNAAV
# T7: GPC3 peptide, amino acid position 1-30 (SEQ ID NO: 1) (human)
# T7 construct: synthetic 30-residue peptide of GPC3
# T7 peptide: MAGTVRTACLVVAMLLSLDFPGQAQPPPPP
# T8: GPC3 peptide, amino acid position 161-190 (SEQ ID NO: 9) (human)
# T8 construct: synthetic 30-residue peptide of GPC3
# T8 peptide: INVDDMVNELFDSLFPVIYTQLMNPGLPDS
# T9: GPC3 peptide, amino acid position 441-470 (SEQ ID NO: 23) (human)
# T9 construct: synthetic 30-residue peptide of GPC3
# T9 peptide: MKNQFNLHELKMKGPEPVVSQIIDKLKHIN
# T10: GPC3 peptide, amino acid position 61-90 (SEQ ID NO: 4) (human)
# T10 construct: synthetic 30-residue peptide of GPC3
# T10 peptide: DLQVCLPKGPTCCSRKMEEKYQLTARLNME
# T11: GPC3 peptide, amino acid position 281-310 (SEQ ID NO: 15) (human)
# T11 construct: synthetic 30-residue peptide of GPC3
# T11 peptide: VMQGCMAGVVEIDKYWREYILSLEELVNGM
# T12: GPC3 peptide, amino acid position 21-50 (SEQ ID NO: 2) (human)
# T12 construct: synthetic 30-residue peptide of GPC3
# T12 peptide: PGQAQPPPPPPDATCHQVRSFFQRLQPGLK
# T13: GPC3 peptide, amino acid position 361-390 (SEQ ID NO: 19) (human)
# T13 construct: synthetic 30-residue peptide of GPC3
# T13 peptide: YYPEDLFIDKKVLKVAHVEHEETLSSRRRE
# T14: GPC3 peptide, amino acid position 541-570 (SEQ ID NO: 28) (human)
# T14 construct: synthetic 30-residue peptide of GPC3
# T14 peptide: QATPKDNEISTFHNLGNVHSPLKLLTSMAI
# T15: GPC3 peptide, amino acid position 101-130 (SEQ ID NO: 6) (human)
# T15 construct: synthetic 30-residue peptide of GPC3
# T15 peptide: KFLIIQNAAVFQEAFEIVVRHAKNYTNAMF
# T16: GPC3 peptide, amino acid position 41-70 (SEQ ID NO: 3) (human)
# T16 construct: synthetic 30-residue peptide of GPC3
# T16 peptide: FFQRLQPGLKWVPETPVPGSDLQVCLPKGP
# T17: GPC3 peptide, amino acid position 481-510 (SEQ ID NO: 25) (human)
# T17 construct: synthetic 30-residue peptide of GPC3
# T17 peptide: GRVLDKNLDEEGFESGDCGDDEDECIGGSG
# T18: GPC3 peptide, amino acid position 121-150 (SEQ ID NO: 7) (human)
# T18 construct: synthetic 30-residue peptide of GPC3
# T18 peptide: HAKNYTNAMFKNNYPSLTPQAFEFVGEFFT
# T19: GPC3 peptide, amino acid position 221-250 (SEQ ID NO: 12) (human)
# T19 construct: synthetic 30-residue peptide of GPC3
# T19 peptide: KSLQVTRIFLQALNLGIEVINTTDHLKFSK
# T20: GPC3 peptide, amino acid position 401-430 (SEQ ID NO: 21) (human)
# T20 construct: synthetic 30-residue peptide of GPC3
# T20 peptide: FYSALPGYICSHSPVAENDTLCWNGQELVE
# T21: GPC3 peptide, amino acid position 521-550 (SEQ ID NO: 27) (human)
# T21 construct: synthetic 30-residue peptide of GPC3
# T21 peptide: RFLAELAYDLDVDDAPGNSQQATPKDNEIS
# T22: GPC3 peptide, amino acid position 261-290 (SEQ ID NO: 14) (human)
# T22 construct: synthetic 30-residue peptide of GPC3
# T22 peptide: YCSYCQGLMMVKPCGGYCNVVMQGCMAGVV
# T23: GPC3 peptide, amino acid position 421-450 (SEQ ID NO: 22) (human)
# T23 construct: synthetic 30-residue peptide of GPC3
# T23 peptide: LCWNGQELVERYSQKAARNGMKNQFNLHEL
# B1: GT607 antibody (antibody, IgG1, V domains shown)
# VH: EVQLVESGGDVVRPGGSLKLSCAASGFTFSSYGMSWVRQLPDKRLEWVASVGNGGSYRYYPENLKGRFTISRDNTKNTLYLQISGLKSEDTAIYYCARRGAFPYFDVWGAGTTVTVSS
# VL: QIVLTQSPAIMSASPGEKVTLACSASSSVTYMHWYQQKSGTSPKRWIYETSKLASGVPPRFSGSGSGTSYSLTISTMEAEDAATYYCQQWSSNPLTFGAGTKLELKR
# B2: GT114 antibody (antibody, IgG1, V domains shown)
# VH: DVQLQESGPGLVKPSQSLSLTCTVTGYSITSDSAWNWIRQFPGNKLEWMAYIMYSGITSYNPSLKSRISITRDTAKNQFFLQLNSVTTEDSATYYCSRGYWYFDVWGAGTTVTVSS
# VL: QIVLTQSPAIMSASLGEEITLTCSASSSVSYMHWYQQKSGTSPKLLIYSTSILASGVPSRFSGSGSGTFYSLTISSVEAEDAADYYCLQWITYRTFGGGTKLEIKR
# B3: GT165 antibody (antibody, IgG1, V domains shown)
# VH: QVQLQQSGAELVGPGASVKISCKAFGYTFTNHHINWVKQRPGQGLDWIGYINPYNDYTNYNQKFKGKATLTVDKSSSTAYMELSSLTSEDSAVYYCARSDPAWFAYWGQGTLVTVSA
# VL: DIQMTQSPSSLSASLGGKVTITCKASQDINKNIAWYQHKPGKGPRLLIWYTYTLQPGIPSRFSGSGSGRDYSFSISNLEPEDIATYYCLQYDNLPFTFGTGTKLEIKR
# Target: T1, GPC3 peptide, amino acid position …
# Assay: ELISA on immobilised peptide
# Method: (§1) In order to identify more detailed epitopes for the antibodies, the amino acid sequence of GPC3 was divided into peptides of 30 residues containing 10-residue overlaps, and the corresponding peptides were synthesized (SEQ ID NOs: 1 to 29 in Table 2). Each peptide thus synthesized was dissolved at a concentration of 1 mg/mL in dimethyl sulfoxide and then diluted to 1 μg/mL with PBS. The diluted peptide solution was added at 70 μL/well to a 96-well plate and immobilized thereon at room temperature for 1 hour. After removal of unimmobilized peptides, 20% Blocking-one (Nacalai Tesque, Inc.) was added thereto as a blocking buffer solution at 200 μL/well, and the plate was blocked overnight. After removal of the blocking buffer solution, each well was washed with TBS-T three times, and each antibody diluted to 2 μg/mL with a blocking buffer was then added thereto at 70 μL/well. One hour later, the antibody was removed, and each well was washed three times by the addition of TBS-T at 200 μL/well. An HRP-bound anti-mouse antibody was added at 70 μL/well to each well and reacted therewith for 1 hour. After removal of the antibody, each well was washed with 200 μL/well of TBS-T three times, and a chromogenic reagent ABTS Peroxidase Substrate System (1 component, KPL, Kirkegaard & Perry Laboratories, Inc.) was then added thereto at 70 μL/well and reacted at room temperature for […] to develop color. The reaction was terminated by the addition of 1% SDS at 70 μL/well, and the absorbance at 405 nm was measured using a plate reader.
row,binding result,Binder
1,no binding (tested: 2 µg/mL),B1
2,no binding (tested: 2 µg/mL),B2
3,no binding (tested: 2 µg/mL),B3

# Target: T2, GPC3 peptide, amino acid position …
# Assay: ELISA on immobilised peptide
# Method: as §1
row,binding result,Binder
1,no binding (tested: 2 µg/mL),B1
2,no binding (tested: 2 µg/mL),B2
3,no binding (tested: 2 µg/mL),B3

# Target: T3, GPC3 peptide, amino acid position …
# Assay: ELISA on immobilised peptide
# Method: as §1
row,binding result,Binder
1,no binding (tested: 2 µg/mL),B1
2,no binding (tested: 2 µg/mL),B2
3,no binding (tested: 2 µg/mL),B3

# Target: T4, GPC3 peptide, amino acid position …
# Assay: ELISA on immobilised peptide
# Method: as §1
row,binding result,Binder
1,no binding (tested: 2 µg/mL),B1
2,no binding (tested: 2 µg/mL),B2
3,no binding (tested: 2 µg/mL),B3

# Target: T5, GPC3 peptide, amino acid position …
# Assay: ELISA on immobilised peptide
# Method: as §1
row,binding result,Binder
1,no binding (tested: 2 µg/mL),B1
2,no binding (tested: 2 µg/mL),B2
3,no binding (tested: 2 µg/mL),B3

# Target: T6, GPC3 peptide, amino acid position …
# Assay: ELISA on immobilised peptide
# Method: as §1
row,binding result,Binder
1,no binding (tested: 2 µg/mL),B1
2,no binding (tested: 2 µg/mL),B2
3,no binding (tested: 2 µg/mL),B3

# Target: T7, GPC3 peptide, amino acid position 1-30 …
# Assay: ELISA on immobilised peptide
# Method: as §1
row,binding result,Binder
1,no binding (tested: 2 µg/mL),B1
2,no binding (tested: 2 µg/mL),B2
3,no binding (tested: 2 µg/mL),B3

# Target: T8, GPC3 peptide, amino acid position …
# Assay: ELISA on immobilised peptide
# Method: as §1
row,binding result,Binder
1,no binding (tested: 2 µg/mL),B1
2,no binding (tested: 2 µg/mL),B2
3,no binding (tested: 2 µg/mL),B3

# Target: T9, GPC3 peptide, amino acid position …
# Assay: ELISA on immobilised peptide
# Method: as §1
row,binding result,Binder
1,no binding (tested: 2 µg/mL),B1
2,no binding (tested: 2 µg/mL),B2
3,no binding (tested: 2 µg/mL),B3

# Target: T10, GPC3 peptide, amino acid position 61-90 …
# Assay: ELISA on immobilised peptide
# Method: as §1
row,binding result,Binder
1,no binding (tested: 2 µg/mL),B1
2,no binding (tested: 2 µg/mL),B2
3,no binding (tested: 2 µg/mL),B3

# Target: T11, GPC3 peptide, amino acid position …
# Assay: ELISA on immobilised peptide
# Method: as §1
row,binding result,Binder
1,no binding (tested: 2 µg/mL),B1
2,no binding (tested: 2 µg/mL),B2
3,no binding (tested: 2 µg/mL),B3

# Target: T12, GPC3 peptide, amino acid position 21-50 …
# Assay: ELISA on immobilised peptide
# Method: as §1
row,binding result,Binder
1,no binding (tested: 2 µg/mL),B1
2,no binding (tested: 2 µg/mL),B2
3,no binding (tested: 2 µg/mL),B3

# Target: T13, GPC3 peptide, amino acid position …
# Assay: ELISA on immobilised peptide
# Method: as §1
row,binding result,Binder
1,no binding (tested: 2 µg/mL),B1
2,no binding (tested: 2 µg/mL),B2
3,no binding (tested: 2 µg/mL),B3

# Target: T14, GPC3 peptide, amino acid position …
# Assay: ELISA on immobilised peptide
# Method: as §1
row,binding result,Binder
1,no binding (tested: 2 µg/mL),B1
2,no binding (tested: 2 µg/mL),B2
3,no binding (tested: 2 µg/mL),B3

# Target: T15, GPC3 peptide, amino acid position …
# Assay: ELISA on immobilised peptide
# Method: as §1
row,binding result,Binder
1,no binding (tested: 2 µg/mL),B1
2,no binding (tested: 2 µg/mL),B2
3,no binding (tested: 2 µg/mL),B3

# Target: T16, GPC3 peptide, amino acid position 41-70 …
# Assay: ELISA on immobilised peptide
# Method: as §1
row,binding result,Binder
1,no binding (tested: 2 µg/mL),B1
2,no binding (tested: 2 µg/mL),B2
3,no binding (tested: 2 µg/mL),B3

# Target: T17, GPC3 peptide, amino acid position …
# Assay: ELISA on immobilised peptide
# Method: as §1
row,binding result,Binder
1,no binding (tested: 2 µg/mL),B1
2,no binding (tested: 2 µg/mL),B2
3,no binding (tested: 2 µg/mL),B3

# Target: T18, GPC3 peptide, amino acid position …
# Assay: ELISA on immobilised peptide
# Method: as §1
row,binding result,Binder
1,no binding (tested: 2 µg/mL),B1
2,no binding (tested: 2 µg/mL),B2
3,no binding (tested: 2 µg/mL),B3

# Target: T19, GPC3 peptide, amino acid position …
# Assay: ELISA on immobilised peptide
# Method: as §1
row,binding result,Binder
1,no binding (tested: 2 µg/mL),B1
2,no binding (tested: 2 µg/mL),B2
3,no binding (tested: 2 µg/mL),B3

# Target: T20, GPC3 peptide, amino acid position …
# Assay: ELISA on immobilised peptide
# Method: as §1
row,binding result,Binder
1,no binding (tested: 2 µg/mL),B1
2,no binding (tested: 2 µg/mL),B2
3,no binding (tested: 2 µg/mL),B3

# Target: T21, GPC3 peptide, amino acid position …
# Assay: ELISA on immobilised peptide
# Method: as §1
row,binding result,Binder
1,no binding (tested: 2 µg/mL),B1
2,no binding (tested: 2 µg/mL),B2
3,no binding (tested: 2 µg/mL),B3

# Target: T22, GPC3 peptide, amino acid position …
# Assay: ELISA on immobilised peptide
# Method: as §1
row,binding result,Binder
1,no binding (tested: 2 µg/mL),B1
2,no binding (tested: 2 µg/mL),B2
3,no binding (tested: 2 µg/mL),B3

# Target: T23, GPC3 peptide, amino acid position …
# Assay: ELISA on immobilised peptide
# Method: as §1
row,binding result,Binder
1,no binding (tested: 2 µg/mL),B1
2,no binding (tested: 2 µg/mL),B2
3,no binding (tested: 2 µg/mL),B3

# Reference: patent US20170010270A1 (Chugai, published 2017)
